Molecular target: T1, trx-ALKAL2-AD^RC (K94E/K96E/K99E/H100E) (human, UniProt Q6UX46 77-152, K94E | K96E | K99E | H100E)
T1 sequence (looked up): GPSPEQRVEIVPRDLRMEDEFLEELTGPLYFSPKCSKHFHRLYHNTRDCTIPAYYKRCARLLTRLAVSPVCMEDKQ
Assay: BLI

binding result: binds
B1: site-specifically biotinylated ALK-ECR^ABR (from Fc-ALKavi) (domain or fragment, human)
chain: QTPIFDPTVHWLFTTCGASGPHGPTQAQCNNAYQNSNLSVEVGSEGPLKGIQIWKVPATDTYSISGYGAAGGKGGKNTMMRSHGVSVLGIFNLEKDDMLYILVGQQGEDACPSTNQLIQKVCIGENNVIEEEIRVNRSVHEWAGGGGGGGGATYVFKMKDGVPVPLIIAAGGGGRAYGAKTDTFHPERLENNSSVLGLNGNSGAAGGGGGWNDNTSLLWAGKSLQEGATGGHSCPQAMKKWGWETRGGFGGGGGGCSSGGGGGGYIGGNAASNNDPEMDGEDGVSFISPLGILYTPALKVMEGHGEVNIKHYLNCSHCEVDECHMDPESHKVICFCDHGTVLAEDGVSCIVSP
modifications: biotin on the C-terminal biotin acceptor peptide (co-expressed BirA)
